Assay [1] addresses Flag-TDRD3 CTD-deletion mutant. The assay is described as follows: co-IP.
In assay [2] the target is Flag-TDRD3 Tudor-deletion mutant (UniProt Q9H7E2). The assay is described as follows: co-IP.
Flag-TDRD3 Tudor-deletion mutant, sequence (Q9H7E2 whole entry, stated change not applied): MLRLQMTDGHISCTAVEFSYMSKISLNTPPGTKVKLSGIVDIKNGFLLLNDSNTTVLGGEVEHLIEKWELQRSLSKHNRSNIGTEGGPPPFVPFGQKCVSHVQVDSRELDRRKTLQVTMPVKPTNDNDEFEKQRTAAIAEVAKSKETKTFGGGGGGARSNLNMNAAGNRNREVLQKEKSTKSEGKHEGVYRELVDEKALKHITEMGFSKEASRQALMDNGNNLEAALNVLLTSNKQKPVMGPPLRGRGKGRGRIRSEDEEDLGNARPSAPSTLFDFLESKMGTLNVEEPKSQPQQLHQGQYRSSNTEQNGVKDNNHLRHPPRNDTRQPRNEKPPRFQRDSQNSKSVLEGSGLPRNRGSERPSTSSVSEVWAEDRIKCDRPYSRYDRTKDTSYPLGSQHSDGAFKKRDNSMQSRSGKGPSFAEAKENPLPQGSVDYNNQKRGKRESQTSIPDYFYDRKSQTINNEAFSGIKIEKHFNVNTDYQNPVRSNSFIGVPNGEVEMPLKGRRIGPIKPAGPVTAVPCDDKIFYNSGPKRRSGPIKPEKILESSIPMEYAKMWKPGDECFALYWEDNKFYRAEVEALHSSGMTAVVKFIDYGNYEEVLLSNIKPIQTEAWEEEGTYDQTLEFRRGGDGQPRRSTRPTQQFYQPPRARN

Flag-TDRD3 CTD-deletion mutant, sequence (Q9H7E2 whole entry, stated change not applied): as above
FXR1, endogenous human, sequence (P51114 whole entry): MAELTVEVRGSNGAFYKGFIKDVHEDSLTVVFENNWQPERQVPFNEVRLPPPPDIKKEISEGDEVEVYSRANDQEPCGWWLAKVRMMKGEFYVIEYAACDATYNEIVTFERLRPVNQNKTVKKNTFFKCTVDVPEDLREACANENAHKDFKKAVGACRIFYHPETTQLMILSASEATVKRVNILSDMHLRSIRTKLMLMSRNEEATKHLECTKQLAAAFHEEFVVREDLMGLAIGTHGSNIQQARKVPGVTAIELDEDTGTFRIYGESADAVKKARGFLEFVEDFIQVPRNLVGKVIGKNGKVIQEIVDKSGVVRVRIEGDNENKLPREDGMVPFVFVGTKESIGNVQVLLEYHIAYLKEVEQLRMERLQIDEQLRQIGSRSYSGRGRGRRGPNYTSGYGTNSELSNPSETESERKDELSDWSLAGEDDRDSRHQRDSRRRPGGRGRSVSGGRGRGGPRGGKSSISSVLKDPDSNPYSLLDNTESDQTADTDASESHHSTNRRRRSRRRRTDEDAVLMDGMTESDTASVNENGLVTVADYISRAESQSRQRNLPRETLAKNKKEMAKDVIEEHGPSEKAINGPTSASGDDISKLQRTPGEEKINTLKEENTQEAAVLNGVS
FXR2, endogenous human, sequence (P51116 whole entry): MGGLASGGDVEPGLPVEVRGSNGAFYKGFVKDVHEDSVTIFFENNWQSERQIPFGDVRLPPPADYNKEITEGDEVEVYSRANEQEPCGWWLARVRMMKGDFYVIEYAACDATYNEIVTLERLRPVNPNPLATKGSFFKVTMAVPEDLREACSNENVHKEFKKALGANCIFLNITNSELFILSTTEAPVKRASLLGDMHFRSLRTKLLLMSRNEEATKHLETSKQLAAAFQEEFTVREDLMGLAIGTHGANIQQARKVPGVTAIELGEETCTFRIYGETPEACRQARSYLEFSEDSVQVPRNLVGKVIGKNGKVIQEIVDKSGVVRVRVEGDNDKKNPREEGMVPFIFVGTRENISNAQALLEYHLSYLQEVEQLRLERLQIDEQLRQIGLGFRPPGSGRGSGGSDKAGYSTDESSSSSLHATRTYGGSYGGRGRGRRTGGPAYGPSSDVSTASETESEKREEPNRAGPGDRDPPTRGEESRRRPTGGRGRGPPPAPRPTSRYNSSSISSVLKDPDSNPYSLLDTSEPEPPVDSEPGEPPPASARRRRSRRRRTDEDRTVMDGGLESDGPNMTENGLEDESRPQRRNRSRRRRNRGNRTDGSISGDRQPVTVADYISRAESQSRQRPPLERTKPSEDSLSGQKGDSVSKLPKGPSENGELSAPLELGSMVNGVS

Regarding “FXR2, endogenous human (from UniProt P51116 1-673) (natural protein)”, the reduction of the co-immunoprecipitated amount against wild-type TDRD3 worked out at 80% in assay [1] and 30% in assay [2].
Take “FXR1, endogenous human (from UniProt P51114 1-621) (natural protein)”: the figures for the reduction of the co-immunoprecipitated amount against wild-type TDRD3 in assay [1] and in assay [2] were 80% and 30%, respectively.
Turning to “FMRP, endogenous human (from UniProt Q06787 1-632) (natural protein)”, the figures for the reduction of the co-immunoprecipitated amount against wild-type TDRD3 in assay [1] and in assay [2] were 80% and 30%, respectively.

For the origin of these results see paper PMC3853347.
